In patent publication US20190389910A1 (ORUM THERAPEUTICS, published 2019):

These binders were tested against human recombinant integrin αvβ6 (αv extracellular domain-acidic leucine zipper-His×6 with β6 extracellular domain-basic leucine zipper) (human) (UniProt P06756) (assay: BLI (Octet), antibody captured on anti-human IgG Fc (AHC) biosensor, integrin αvβ6 3.1-100 nM as analyte, divalent cations).
Sequence of human recombinant integrin αvβ6 (αv extracellular domain-acidic leucine zipper-His×6 with β6 extracellular domain-basic leucine zipper) (human) (P06756 other isoform, or with tags, fused parts or gaps, chain 1 of 2): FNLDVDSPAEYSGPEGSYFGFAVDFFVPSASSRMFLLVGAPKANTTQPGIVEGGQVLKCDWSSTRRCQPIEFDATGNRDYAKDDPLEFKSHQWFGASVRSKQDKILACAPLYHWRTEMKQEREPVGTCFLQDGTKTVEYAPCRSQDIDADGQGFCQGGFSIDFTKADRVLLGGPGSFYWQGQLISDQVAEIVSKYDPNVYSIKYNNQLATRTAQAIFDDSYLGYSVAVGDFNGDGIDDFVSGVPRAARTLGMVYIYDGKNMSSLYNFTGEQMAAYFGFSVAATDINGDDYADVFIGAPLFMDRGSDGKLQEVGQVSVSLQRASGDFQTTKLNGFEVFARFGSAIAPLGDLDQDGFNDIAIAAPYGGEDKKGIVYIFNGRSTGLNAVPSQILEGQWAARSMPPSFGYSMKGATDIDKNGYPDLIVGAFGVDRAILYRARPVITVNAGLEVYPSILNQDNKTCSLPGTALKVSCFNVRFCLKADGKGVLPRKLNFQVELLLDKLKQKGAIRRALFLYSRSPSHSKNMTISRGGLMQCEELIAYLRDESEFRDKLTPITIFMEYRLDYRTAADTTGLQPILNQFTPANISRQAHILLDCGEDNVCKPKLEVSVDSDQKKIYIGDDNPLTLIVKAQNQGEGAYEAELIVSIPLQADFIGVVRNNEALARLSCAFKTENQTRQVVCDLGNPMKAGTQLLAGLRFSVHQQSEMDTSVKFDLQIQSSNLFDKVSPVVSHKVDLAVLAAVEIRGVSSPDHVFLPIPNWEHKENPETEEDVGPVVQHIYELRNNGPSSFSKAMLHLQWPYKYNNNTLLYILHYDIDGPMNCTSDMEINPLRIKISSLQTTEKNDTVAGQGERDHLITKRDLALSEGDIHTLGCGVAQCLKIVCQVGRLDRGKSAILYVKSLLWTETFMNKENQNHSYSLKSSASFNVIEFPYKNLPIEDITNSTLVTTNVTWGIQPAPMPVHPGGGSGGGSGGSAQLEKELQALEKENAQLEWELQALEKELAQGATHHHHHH
Sequence of human recombinant integrin αvβ6 (αv extracellular domain-acidic leucine zipper-His×6 with β6 extracellular domain-basic leucine zipper) (human) (chain, as listed by the source, chain 2 of 2): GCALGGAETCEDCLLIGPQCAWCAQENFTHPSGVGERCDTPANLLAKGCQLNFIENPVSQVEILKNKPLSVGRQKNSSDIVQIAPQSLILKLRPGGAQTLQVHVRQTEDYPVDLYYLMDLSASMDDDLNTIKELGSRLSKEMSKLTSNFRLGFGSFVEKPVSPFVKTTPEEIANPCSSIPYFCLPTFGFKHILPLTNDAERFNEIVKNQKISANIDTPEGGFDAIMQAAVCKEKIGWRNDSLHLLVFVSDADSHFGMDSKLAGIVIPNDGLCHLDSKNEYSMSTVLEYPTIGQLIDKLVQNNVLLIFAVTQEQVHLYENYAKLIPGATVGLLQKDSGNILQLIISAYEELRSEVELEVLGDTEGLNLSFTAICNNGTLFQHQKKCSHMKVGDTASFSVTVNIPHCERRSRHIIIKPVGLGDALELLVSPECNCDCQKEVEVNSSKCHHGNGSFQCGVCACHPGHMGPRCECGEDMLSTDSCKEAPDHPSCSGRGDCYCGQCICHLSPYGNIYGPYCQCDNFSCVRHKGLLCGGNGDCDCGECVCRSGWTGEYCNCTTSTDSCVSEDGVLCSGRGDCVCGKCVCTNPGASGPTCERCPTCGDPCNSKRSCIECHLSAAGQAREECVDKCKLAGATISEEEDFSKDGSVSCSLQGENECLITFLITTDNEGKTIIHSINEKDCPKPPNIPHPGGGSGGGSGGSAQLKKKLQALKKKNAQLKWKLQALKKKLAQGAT

Kd	koff	kon	Binder
12.1 nM	0.00703 s⁻¹	583000 M⁻¹ s⁻¹	in4-Ras03 (antibody, part only; not given: RT22 heavy chain, light constant, V domains shown, not shown: another chain or arm of the molecule; a dimerising Fc or GST, chain 1: disulfide bond Cys6-Cys10 closes the in4 cyclic peptide) VL: DGVRQCRGDCFDGPLMGSSSNDIQMTQSPSSLSASVGDRVTITCKSSQSLLNSRDGKNYLAWYQQKPGKAPKLLIYWASTRESGVPSRFSGSGSGTDFTLTISSLQPEDFATYFCQQYWYWMYTFGQGTKVEIK
0.457 nM	0.000128 s⁻¹	279000 M⁻¹ s⁻¹	SFITGv6-Ras03 (antibody, part only; not given: RT22 heavy chain, constant regions, V domains shown, not shown: another chain or arm of the molecule; a dimerising Fc or GST; large carriers; small tags and cut ends, chain 1: disulfide bond Cys3-Cys13 closes the SFITGv6 cyclic peptide) VL: GRCTFRGDLMQLCYPDMGSSSNDIQMTQSPSSLSASVGDRVTITCKSSQSLLNSRDGKNYLAWYQQKPGKAPKLLIYWASTRESGVPSRFSGSGSGTDFTLTISSLQPEDFATYFCQQYWYWMYTFGQGTKVEIK
1.52 nM	0.000265 s⁻¹	175000 M⁻¹ s⁻¹	6#4-Ras03 (antibody, part only; not given: RT22 heavy chain, light constant, V domains shown, not shown: another chain or arm of the molecule; a dimerising Fc or GST, chain 1: disulfide bond Cys6-Cys16 closes the cyclic peptide) VL: ESFRPCQYRGDLFVLCFPSDMGSSSNDIQMTQSPSSLSASVGDRVTITCKSSQSLLNSRDGKNYLAWYQQKPGKAPKLLIYWASTRESGVPSRFSGSGSGTDFTLTISSLQPEDFATYFCQQYWYWMYTFGQGTKVEIK
0.722 nM	0.000153 s⁻¹	212000 M⁻¹ s⁻¹	6#2-Ras03 (antibody, part only; not given: RT22 heavy chain, constant regions, V domains shown, not shown: another chain or arm of the molecule; a dimerising Fc or GST; large carriers; small tags and cut ends, chain 1: disulfide bond Cys6-Cys16 closes the 6#2 cyclic peptide) VL: HVEFPCTRRGDLFVLCEGSMGSSSNDIQMTQSPSSLSASVGDRVTITCKSSQSLLNSRDGKNYLAWYQQKPGKAPKLLIYWASTRESGVPSRFSGSGSGTDFTLTISSLQPEDFATYFCQQYWYWMYTFGQGTKVEIK
0.952 nM	0.000175 s⁻¹	184000 M⁻¹ s⁻¹	6#8-Ras03 (antibody, part only; not given: RT22 heavy chain, light constant, V domains shown, not shown: another chain or arm of the molecule; a dimerising Fc or GST, chain 1: disulfide bond Cys6-Cys16 closes the cyclic peptide) VL: FPNNQCQHRGDLFALCADMGSSSNDIQMTQSPSSLSASVGDRVTITCKSSQSLLNSRDGKNYLAWYQQKPGKAPKLLIYWASTRESGVPSRFSGSGSGTDFTLTISSLQPEDFATYFCQQYWYWMYTFGQGTKVEIK

The binders below were run against heparan sulfate proteoglycan (HSPG) expressed on HeLa cells (assay: cell-based or functional assay).

fluorescence intensity of antibody located in the cytoplasm (confocal microscopy, HeLa cells, 1 µM, 6 h)	Binder
100%	TMab4-WYW (antibody, human IgG1, V domains shown) VH: EVQLVESGGGLVQPGGSLRLSCAASGYTFTSYVMHWVRQAPGKGLEWVSAINPYNDGNYYADSVKGRFTISRDNSRKTLYLQMNSLRAEDTAVYYCARGAYKRGYAMDYWGQGTTVTVSS VL: DLVMTQSPSSLSASVGDRVTITCKSSQSLFNSRTRKNYLAWYQQKPGKAPKLLIYWASTRESGVPSRFSGSGSGTDFTLTISSLQPEDFATYYCQQYWYWMYTFGQGTKVEIKR
31.8%	CT03c (antibody, V domains shown) VH: EVQLVESGGGLVQPGGSLRLSCAASGYTFTSYVMHWVRQAPGKGLEWVSAINPYNDGNYYADSVKGRFTISRDNSRKTLYLQMNSLRAEDTAVYYCARGAYKRGYAMDYWGQGTTVTVSS VL: DLVMTQSPSSLSASVGDRVTITCKSSQSLLNSDDRNTYLAWYQQKPGKAPKLLIYWLSYRASGVPSRFSGSGSGTDFTLTISSLQPEDFATYFCQQYWYWMYTFGQGTKVEIKR
40.1%	CT03a (antibody, V domains shown) VH: EVQLVESGGGLVQPGGSLRLSCAASGYTFTSYVMHWVRQAPGKGLEWVSAINPYNDGNYYADSVKGRFTISRDNSRKTLYLQMNSLRAEDTAVYYCARGAYKRGYAMDYWGQGTTVTVSS VL: DLVMTQSPSSLSASVGDRVTITCKSSQSLLNSRTRKNYLAWYQQKPGKAPKLLIYWASTRESGVPSRFSGSGSGTDFTLTISSLQPEDFATYFCQQYWYWMYTFGQGTKVEIKR
26.3%	CT03d (antibody, V domains shown) VH: EVQLVESGGGLVQPGGSLRLSCAASGYTFTSYVMHWVRQAPGKGLEWVSAINPYNDGNYYADSVKGRFTISRDNSRKTLYLQMNSLRAEDTAVYYCARGAYKRGYAMDYWGQGTTVTVSS VL: DLVMTQSPSSLSASVGDRVTITCKSSQSLLNSRTGKTYLAWYQQKPGKAPKLLIYWASTRESGVPSRFSGSGSGTDFTLTISSLQPEDFATYFCQQYWYWMYTFGQGTKVEIKR
19.6%	CT03e (antibody, V domains shown) VH: EVQLVESGGGLVQPGGSLRLSCAASGYTFTSYVMHWVRQAPGKGLEWVSAINPYNDGNYYADSVKGRFTISRDNSRKTLYLQMNSLRAEDTAVYYCARGAYKRGYAMDYWGQGTTVTVSS VL: DLVMTQSPSSLSASVGDRVTITCKSSQSLLNSRDGKNYLAWYQQKPGKAPKLLIYWASTRESGVPSRFSGSGSGTDFTLTISSLQPEDFATYFCQQYWYWMYTFGQGTKVEIKR

What follows are binders tested against human recombinant EpCAM antigen (extracellular domain, residues 1 to 265, fused with 6×His tag and Avi-tag) (human) (UniProt P16422) (assay: SPR (Biacore 2000), EpCAM on CM5 chip (about 367 RU), antibody 6.25-100 nM as analyte).
Sequence of human recombinant EpCAM antigen (extracellular domain, residues 1 to 265, fused with 6×His tag and Avi-tag) (human) (P16422 24-265 limits assumed, form in doubt): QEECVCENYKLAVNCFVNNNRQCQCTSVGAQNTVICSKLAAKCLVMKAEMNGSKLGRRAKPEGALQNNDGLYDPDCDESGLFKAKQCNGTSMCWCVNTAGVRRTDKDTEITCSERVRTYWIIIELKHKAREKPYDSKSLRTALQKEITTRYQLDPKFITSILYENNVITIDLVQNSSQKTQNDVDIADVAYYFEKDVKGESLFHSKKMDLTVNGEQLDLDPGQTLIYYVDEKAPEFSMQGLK

Kd	koff	kon	Binder
2.11 nM	0.0036 s⁻¹	1.7e+06 M⁻¹ s⁻¹	ep3-Ras03 (antibody, part only; not given: RT22 heavy chain, light constant, V domains shown, not shown: another chain or arm of the molecule; a dimerising Fc or GST, chain 1: disulfide bond Cys5-Cys10 closes the cyclic peptide) VL: ENLQCIGNLCWSMGSSSNDIQMTQSPSSLSASVGDRVTITCKSSQSLLNSRDGKNYLAWYQQKPGKAPKLLIYWASTRESGVPSRFSGSGSGTDFTLTISSLQPEDFATYFCQQYWYWMYTFGQGTKVEIK

Each binder was assayed against human recombinant integrin αvβ5 (αv extracellular domain-acidic leucine zipper-His×6 with β5 extracellular domain-basic leucine zipper) (human) (UniProt P06756) (assay: BLI (Octet), antibody captured on anti-human IgG Fc (AHC) biosensor, integrin αvβ5 3.1-100 nM as analyte, divalent cations).
Sequence of human recombinant integrin αvβ5 (αv extracellular domain-acidic leucine zipper-His×6 with β5 extracellular domain-basic leucine zipper) (human) (P06756 other isoform, or with tags, fused parts or gaps, chain 1 of 2): as the sequence (P06756 other isoform, or with tags, fused parts or gaps, chain 1 of 2) above
Sequence of human recombinant integrin αvβ5 (αv extracellular domain-acidic leucine zipper-His×6 with β5 extracellular domain-basic leucine zipper) (human) (chain, as listed by the source, chain 2 of 2): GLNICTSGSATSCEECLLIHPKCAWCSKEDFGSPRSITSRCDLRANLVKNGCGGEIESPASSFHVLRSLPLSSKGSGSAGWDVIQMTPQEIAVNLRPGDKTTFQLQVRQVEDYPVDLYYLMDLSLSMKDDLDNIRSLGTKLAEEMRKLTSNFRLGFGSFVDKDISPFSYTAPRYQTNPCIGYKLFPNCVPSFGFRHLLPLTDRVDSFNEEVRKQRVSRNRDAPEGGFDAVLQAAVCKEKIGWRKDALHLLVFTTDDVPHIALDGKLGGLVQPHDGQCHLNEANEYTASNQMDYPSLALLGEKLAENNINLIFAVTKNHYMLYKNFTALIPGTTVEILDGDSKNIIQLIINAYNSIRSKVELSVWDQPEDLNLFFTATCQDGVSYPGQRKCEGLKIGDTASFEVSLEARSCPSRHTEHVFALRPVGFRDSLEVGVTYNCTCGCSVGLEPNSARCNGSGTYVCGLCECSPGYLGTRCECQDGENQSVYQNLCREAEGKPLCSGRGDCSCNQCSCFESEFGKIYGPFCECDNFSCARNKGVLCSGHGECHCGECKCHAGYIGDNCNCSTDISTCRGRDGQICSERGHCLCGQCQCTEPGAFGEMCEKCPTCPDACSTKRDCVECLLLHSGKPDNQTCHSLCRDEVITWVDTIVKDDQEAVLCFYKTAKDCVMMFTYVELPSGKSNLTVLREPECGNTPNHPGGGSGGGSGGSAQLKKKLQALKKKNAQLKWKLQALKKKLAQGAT

Kd	koff	kon	Binder
2.06 nM	0.000166 s⁻¹	80600 M⁻¹ s⁻¹	in4-Ras03 (antibody, part only; not given: RT22 heavy chain, light constant, V domains shown, not shown: another chain or arm of the molecule; a dimerising Fc or GST, chain 1: disulfide bond Cys6-Cys10 closes the in4 cyclic peptide) VL: DGVRQCRGDCFDGPLMGSSSNDIQMTQSPSSLSASVGDRVTITCKSSQSLLNSRDGKNYLAWYQQKPGKAPKLLIYWASTRESGVPSRFSGSGSGTDFTLTISSLQPEDFATYFCQQYWYWMYTFGQGTKVEIK
